Test results as given in patent US20110053831A1.

B1: SEQ ID NO 44 (peptide)
peptide: RSDYKDDDDKKDSIRRRGENISSQEVEAVLMSHPEVVNAAVYPVRGDLPGD
B2: SEQ ID NO 50 (peptide)
peptide: B1 peptide
B3: SEQ ID NO 60 (peptide)
peptide: RSDYKDDDDKGLQGRRQPGQQPQGRWSGRALPAHR
B4: SEQ ID NO 62 (peptide)
peptide: B3 peptide
B5: SEQ ID NO 64 (peptide)
peptide: RSDYKDDDDKAYQSISLAGYHGDTSRTFLVGSVSATARKLVEATQETMIDYTCRRRPCSLTWYQLMHRYRY
B6: SEQ ID NO 26 (peptide)
peptide: RSDYKDDDDKAYQSM
B7: SEQ ID NO 34 (peptide)
peptide: RSDYKDDDDKTYQSIKGPENKVKMYFLNDLNFSRRDAGFKARKDALDIASDYENISVVNIPLWGGVVQRIISSVKLSTFLCGLENKDVLIFNFPMAKPFWHILSFFHRLLKFRIVLLIDDKPCRRRPCSLTWYQLMHRYRY
B8: SEQ ID NO 68 (peptide)
peptide: RSDYKDDDDKAYQSISVVVVLVV
B9: SEQ ID NO 52 (peptide)
peptide: RSDYKDDDDNTPHSSDGHNNP
B10: SEQ ID NO 46 (peptide)
peptide: RSDYKDDDDKLYQSLLTATKELLFVAPVAKAFTSCD
B11: SEQ ID NO 36 (peptide)
peptide: RSDYKDDDDKAYQSIIH
B12: SEQ ID NO 72 (peptide)
peptide: RSDYKDDDDKAYQSIIGAGKSTLIKALTGVYHADRGTIWLEGQAISPKNTAHAQQCRRRPCSLTWYQLMHRYRY
B13: SEQ ID NO 58 (peptide)
peptide: RSDYKDDDDKGLQGRRRQGYQSIKP
B14: SEQ ID NO 66 (peptide)
peptide: RSDYKDDDDKAYQSIMAVAAQQPVAFLVGRQRRRGQVGIDSGDQHLRTPLFHELCRRRPCSLAWYQLMHRYRY
B15: SEQ ID NO 38 (peptide)
peptide: RSDYKDDDDKLINQSYAYPYIY
B16: SEQ ID NO 42 (peptide)
peptide: RSDYKDDDDKIIIYIFLNISNSIKNIFDNMGKIR
B17: SEQ ID NO 48 (peptide)
peptide: RSDYKDDDDKAYQSISFLSQ
B18: SEQ ID NO 40 (peptide)
peptide: RSDYKDDDDKIYSSILWGTKWCVLLVITP
B19: SEQ ID NO 28 (peptide)
peptide: RSDYKDDDDKAYQSKRL
B20: SEQ ID NO 30 (peptide)
peptide: RSDYKDDDDKAYQSIIANEEEREKNFASSKKDGSYTDLL
B21: SEQ ID NO 56 (peptide)
peptide: RSDYKDDDDKAYQSIRSGGIESSSKRER
B22: SEQ ID NO 70 (peptide)
peptide: RSDYKDDDDKANQLPKILAGRLIFIKC
B23: SEQ ID NO 54 (peptide)
peptide: RSDYKDDDDKAYQSINSSPVLPENSQELSLHLKQHVTKS
B24: SEQ ID NO 32 (peptide)
peptide: RSDYKDDDDKAYQESTKALVEGGADLILIETVLVVVVLVV

Molecular target: JUN1 fragment of c-Jun (UniProt P05412)
Experiment: cell-based or functional assay

**Q.** For B1, which decrease in growth of yeast on HTU media (reverse two-hybrid) is on record?
**A.** > 50%

**Q.** With B2 as the binder, how does the decrease in growth of yeast on HTU media (reverse two-hybrid) read?
**A.** > 50%

**Q.** For B3, which decrease in growth of yeast on HTU media (reverse two-hybrid) is on record?
**A.** > 50%

**Q.** With B4 as the binder, how does the decrease in growth of yeast on HTU media (reverse two-hybrid) read?
**A.** > 50%

**Q.** For B5, which decrease in growth of yeast on HTU media (reverse two-hybrid) is on record?
**A.** > 50%

**Q.** Which decrease in growth of yeast on HTU media (reverse two-hybrid) does the source give for B6 here?
**A.** > 50%

**Q.** B7 was tested. Which decrease in growth of yeast on HTU media (reverse two-hybrid) did it give?
**A.** > 50%

**Q.** For B8, which decrease in growth of yeast on HTU media (reverse two-hybrid) is on record?
**A.** > 50%

**Q.** How did the decrease in growth of yeast on HTU media (reverse two-hybrid) turn out when B9 was run?
**A.** > 50%

**Q.** With B10 as the binder, how does the decrease in growth of yeast on HTU media (reverse two-hybrid) read?
**A.** > 50%

**Q.** For B11, which decrease in growth of yeast on HTU media (reverse two-hybrid) is on record?
**A.** > 50%

**Q.** How did the decrease in growth of yeast on HTU media (reverse two-hybrid) turn out when B12 was run?
**A.** > 50%

**Q.** Which decrease in growth of yeast on HTU media (reverse two-hybrid) does the source give for B13 here?
**A.** > 50%

**Q.** Which decrease in growth of yeast on HTU media (reverse two-hybrid) does the source give for B14 here?
**A.** > 50%

**Q.** With B15 as the binder, how does the decrease in growth of yeast on HTU media (reverse two-hybrid) read?
**A.** > 50%

**Q.** Which decrease in growth of yeast on HTU media (reverse two-hybrid) does the source give for B16 here?
**A.** > 50%

**Q.** How did the decrease in growth of yeast on HTU media (reverse two-hybrid) turn out when B17 was run?
**A.** > 50%

**Q.** B18 was tested. Which decrease in growth of yeast on HTU media (reverse two-hybrid) did it give?
**A.** > 50%

**Q.** Which decrease in growth of yeast on HTU media (reverse two-hybrid) does the source give for B19 here?
**A.** > 50%

**Q.** For B20, which decrease in growth of yeast on HTU media (reverse two-hybrid) is on record?
**A.** > 50%

**Q.** How did the decrease in growth of yeast on HTU media (reverse two-hybrid) turn out when B21 was run?
**A.** > 50%

**Q.** Which decrease in growth of yeast on HTU media (reverse two-hybrid) does the source give for B22 here?
**A.** > 50%

**Q.** With B23 as the binder, how does the decrease in growth of yeast on HTU media (reverse two-hybrid) read?
**A.** > 50%

**Q.** How did the decrease in growth of yeast on HTU media (reverse two-hybrid) turn out when B24 was run?
**A.** > 50%
